The data set relates to MS2 coat protein. In words: apparent KD of MS2 coat protein; designed switch direction (-1 OFF switch, 1 ON switch): -1; higher = weaker reporter binding. In short, it runs like this: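 On Illumina chips, designed RNA switches with common flanks were made by stalled E. coli RNA polymerase. Titrations with SNAP-549-labelled MS2 coat protein, doubling from 0.7 or 1.5 nM to 3 µM, were done with no input, with 200 uM small-molecule ligand, or with an oligonucleotide input. Apparent KD is the median per design over clusters, from curve fits of normalised cluster fluorescence.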

Where [1] appears, read: Eterna round: R95, input ligand: FMN 200 uM.
The mark [2] stands for this setting: Eterna round: R95, input ligand: microRNA oligo, concentration not stated.
[3] abbreviates: Eterna round: R95, input ligand: none.
Where [4] appears, read: input ligand: microRNA oligo, concentration not stated.

For “AAAUAAUAGAUAAAAUAAAACAUGAGGAUCACCCAUGUGGGAUGUUGAGGGUGAUACAAGCUUUUUGCUCGUCUUAU (puzzle: Sensor v3, turn-off variant 1)”, the “apparent KD of MS2 coat protein” value under setting [1] is 233 nM, the “apparent KD of MS2 coat protein” value under setting [2] came out at 45.6 nM and the “apparent KD of MS2 coat protein” value under setting [3] amounted to 271 nM.
Turning to “AAAUAGAAUGAGGAUAUCGUAUUGUAUUUAGUGCGAGAAGGCAUUACAUGAGGAUCACCCAUGUUUUGUUGGGA [JR_Ex6_Sub003] (Eterna round: R97, puzzle: Exclusion 6)”, the “apparent KD of MS2 coat protein” value reads like this: (input ligand: FMN 200 uM) 89.1 nM; (input ligand: none) 32.3 nM.
For the sequence “AAAUAGCGAGGAUAUACUCCAAUAGCAAAUAUUCCCAUGGCACAUGAGGAUCACCCAUGUAGAAGGCGCAGUAA (Eterna round: R97, puzzle: Exclusion 2)”, the “apparent KD of MS2 coat protein” value (input ligand: FMN 200 uM) was 54.2 nM and the “apparent KD of MS2 coat protein” value (input ligand: none) was found to be 44.4 nM.
On to “AAAUCUGCUGAGGAUAUGAUGACUGAGAGGUCAUCAGAAGGCGGUACAUGAGGAUCACCCAUGUCUAUGGGCAA [Ex-6 Malc#30] (puzzle: Exclusion 6)”, for which the “apparent KD of MS2 coat protein” value under setting [2] stood at 243 nM.
On to “AAAUGUUCGGAGGAUAUAGAACGAUUGUCCGAGCUAGAAGGCCGAACAUGAGGAUCACCCAUGUGUACCUUAAA [Tibiares] (puzzle: Exclusion 6)”, for which the “apparent KD of MS2 coat protein” value by setting is: under setting [1], 306 nM; under setting [2], 40.1 nM; under setting [3], 53.7 nM.
Consider “AAAUGUUGUAAGGAUAUUGAAUAAGAAAACUUACGAGAAGGUGCGACAUGAGGAUCACCCAUGUUCCCAAAGGG [Alacar 2] (Eterna round: R97, puzzle: Exclusion 6)”, for which the “apparent KD of MS2 coat protein” value (input ligand: FMN 200 uM) amounted to 31.5 nM and the “apparent KD of MS2 coat protein” value (input ligand: none) is 30.4 nM.
With “AAAUUCAGAGGAUAUGCGCAUAGAUAAGACUUUGUUUCUUAACAUGAGGAUCACCCAUGUAGAAGGCUGUACAA [Ex2 #68] (Eterna round: R97, puzzle: Exclusion 2)”, the “apparent KD of MS2 coat protein” value runs as follows: (input ligand: FMN 200 uM) 16.1 nM; (input ligand: none) 13.4 nM.
Turning to “AAAUUGCUAGAGGAUAUCGGAUAGGAUUUAUUACGAGAAGGUUAGACAUGAGGAUCACCCAUGUUCUGUUGGGA [EX6 #24] (Eterna round: R97, puzzle: Exclusion 6)”, the “apparent KD of MS2 coat protein” value runs as follows: (input ligand: FMN 200 uM) 89.5 nM; (input ligand: none) 36.9 nM.
Regarding “AAAUUGUGAGGAUAUCCAAUAUAUGACAUGAGGAUCACCCAUGUUUCCACUCGUACCUCCGGAGAAGGCACUGCAA [Ex5 #39] (Eterna round: R97, puzzle: Exclusion 5)”, the “apparent KD of MS2 coat protein” value reads like this: (input ligand: FMN 200 uM) 22.3 nM; (input ligand: none) 27.2 nM.
As to “AACACGGGAGGAUAUGCGACAGGAAACAUGAGGAUCACCCAUGUGGAUGGUCGUACAAACGUAGAAGGCCCGCCCA [Eternabot (Original) Solution 1] (Eterna round: R97, puzzle: Exclusion 5)”, the “apparent KD of MS2 coat protein” value is, setting by setting: (input ligand: FMN 200 uM) 12.9 nM; (input ligand: none) 15.3 nM.
For “AACAGUCUAGAGGAUAUGUGGGAUUAAUAUCUUGCAGAAGGCUGGACAUGAGGAUCACCCAUGUAAAUACUACC [Omei Ex6 A15] (Eterna round: R97, puzzle: Exclusion 6)”, the “apparent KD of MS2 coat protein” value amounted to 80.8 nM (input ligand: FMN 200 uM) and 32.9 nM (input ligand: none).
On to “AACCCGAUAGGAUAUACUUGAGGAUCACCCAAGUACGCCUGCAAUGCAAGCGCCUGAAGUAGAAGGAUCAAAAG [Gexetele] (Eterna round: R97, puzzle: Exclusion 3)”, for which the “apparent KD of MS2 coat protein” value reads like this: (input ligand: FMN 200 uM) 21 nM; (input ligand: none) 31.1 nM.
The corresponding values for “AACCUACAUGAGGAUCACCCAUGUGAGGAUAUAUUGUUAUUUAUAAUAUUUUUUAGUGGUAGAAGGCGCGUGAU [JR_Exc1_Sub019] (Eterna round: R97, puzzle: Exclusion 1)” are 21 nM and 18.5 nM.
With “AACCUGAGGCUUUGCUUUAGGUUUACAUGAGGAUCACCCAUGUAGGAUAUGGUAGGCUUUGCUUACCAGAAGGACAUGAUAAUU [Mat - Exclusion NG 3 - Mod of JL - D27] (Eterna round: R96, puzzle: Exclusion NG 3)”, the “apparent KD of MS2 coat protein” value by setting is: (input ligand: FMN 200 uM) 215 nM; under setting [4], 33 nM; (input ligand: none) 43.8 nM.
In the case of “AACGAGGCAGGAUAUACAUGAGGAUCACCCAUGUGCUUGCAUGGCGUGGGAAGUCAUCGUAGAAGGGCUAUGCC [EX3 #64] (Eterna round: R97, puzzle: Exclusion 3)”, the “apparent KD of MS2 coat protein” value worked out at 210 nM (input ligand: FMN 200 uM) and 283 nM (input ligand: none).
As to “AACGUGUAAGGAUAUCUGCUUAUGCUCGGCAAUGCACCGAUAGAGAAGGUACAUGAGGAUCACCCAUGUUCCAA [EX4 A.16] (Eterna round: R97, puzzle: Exclusion 4)”, the “apparent KD of MS2 coat protein” value is, setting by setting: (input ligand: FMN 200 uM) 16.7 nM; (input ligand: none) 15.8 nM.
Consider “AACGUGUAAGGAUAUGCUGCUCGUCACGAAAGUGAUGAGUAGCAGAAGGUACAUGAGGAUCACCCAUGUAAAGA [Exclusion 4.1f (Exclusion4-cac2 - changed GC at 6/50 to AU )] (Eterna round: R96, puzzle: Exclusion 4)”, for which the “apparent KD of MS2 coat protein” value reads like this: (input ligand: FMN 200 uM) 91.6 nM; under setting [4], 19 nM; (input ligand: none) 22.2 nM.
On to “AACUCGUUAGGAUAUACCGCCAACGAUACCUCGUGAAACAUACAUGAGGAUCACCCAUGUAGAAGGAGCGAGCA [Vearbe] (puzzle: Exclusion 2)”, for which, under setting [2], the “apparent KD of MS2 coat protein” value amounted to 15.7 nM.
Consider “AACUGACAUGAGGAUCACCCAUGUCAGGAUAUGCUUCAUAAAAACAAACAAAAAUGAUGCAGAAGGGACAUGGA [Design 30 :P Sub-opt 6] (Eterna round: R96, puzzle: Exclusion 1)”, for which the “apparent KD of MS2 coat protein” value under setting [4] came out at 14.3 nM.
For “AAGAAACAUGAGGAUCACCCAUGUCAGGAUAUCUCGAAAAGCAUAGAAAUAUGCGAAGAGAGAAGGGACUAUCC [ChP Ext 10-04-2015 #3] (puzzle: Exclusion 1)”, the “apparent KD of MS2 coat protein” value under setting [1] amounted to 22.7 nM, the “apparent KD of MS2 coat protein” value under setting [2] came to 23.7 nM and the “apparent KD of MS2 coat protein” value under setting [3] was 31.6 nM.
For the sequence “AAGAAACAUGAGGAUCACCCAUGUGAGGAUAUGAAAAAGAAAAGAAAAGAAAGAAGACUCAGAAGGCACAAAGG [salish99-ex1_r3_022] (puzzle: Exclusion 1)”, the “apparent KD of MS2 coat protein” value was 33.3 nM under setting [1], 48.5 nM under setting [2] and 45.7 nM under setting [3].
As to “AAGAAACAUGAGGAUCACCCAUGUGAGGAUAUGAAAAAGAAAAGAAAAGAAAGAAGCAUCAGAAGGCACAAAGG [salish99-ex1_r3_026] (puzzle: Exclusion 1)”, the “apparent KD of MS2 coat protein” value amounted to 36.1 nM under setting [1], 32.1 nM under setting [2] and 31.1 nM under setting [3].
Consider “AAGAAACAUGAGGAUCACCCAUGUGAGGAUAUGAAAAAGAAAAGAAAAGAAAGAAGCUUCAGAAGGCACAAAGG [salish99-ex1_r3_030] (puzzle: Exclusion 1)”, for which the “apparent KD of MS2 coat protein” value is, setting by setting: under setting [1], 38 nM; under setting [2], 27.5 nM; under setting [3], 39.4 nM.
The corresponding values for “AAGAAACAUGAGGAUCACCCAUGUGAGGAUAUGUAAAAUAAAAGAAAAUAAAGAAUAAACAGAAGGCACAAAGG [Mat - Mod of Hog D23] (puzzle: Exclusion 1)” are 48 nM, 46.5 nM and 43.5 nM.
With “AAGAAAGGUGACAUGGGUGACAUGAGGAUCACCCAUGUUACAAGCUUGUUGCUCGUCUUAUAAUUAACCCAUGUCAU [LRO Sensor-off var1-19 mod of Stov1-13-A1 by Brourd] (Eterna round: R97, puzzle: Sensor, turn-off variant 1)”, the “apparent KD of MS2 coat protein” value was found to be 55.3 nM (input ligand: FMN 200 uM) and 64.6 nM (input ligand: none).
Take “AAGAACGGUAAGGAUAUCCAUGUGAAAUAAAGAGGAGAAGGUACCACAUGAGGAUCACCCAUGUGGCUCUCAAA [EX6 B.30] (Eterna round: R97, puzzle: Exclusion 6)”: the “apparent KD of MS2 coat protein” value by setting is: (input ligand: FMN 200 uM) 13.8 nM; (input ligand: none) 11.5 nM.
Regarding “AAGAACGUACAAGGAUAUCUCCACCACAACGGCAGAGAAGGUGUACAUGAGGAUCACCCAUGUGACCGAAGGCCCUUAUGGGCC [Xeerergeza] (Eterna round: R96, puzzle: Exclusion NG 1)”, the “apparent KD of MS2 coat protein” value reads like this: (input ligand: FMN 200 uM) 79.8 nM; under setting [4], 20.6 nM; (input ligand: none) 29.6 nM.
Turning to “AAGACACAUGAGGAUCACCCAUGUGAGGAUAUUCGAUGCUAAGCGUAAGCUUAGUAUCGGAGAAGGCACAAAGG [Salishxclusion 6 - Jieux - Exclusion 1] (Eterna round: R97, puzzle: Exclusion 1)”, the “apparent KD of MS2 coat protein” value by setting is: (input ligand: FMN 200 uM) 128 nM; (input ligand: none) 48.2 nM.
Consider “AAGACGCGUGUAAGGAUAUCGAAAGCCCGAGGCGACGAGAAGGUACAUGAGGAUCACCCAUGUGCAGAUCACAA [BmEX4 B.3] (Eterna round: R97, puzzle: Brourd's mod of Exclusion 4)”, for which the “apparent KD of MS2 coat protein” value by setting is: (input ligand: FMN 200 uM) 18.9 nM; (input ligand: none) 17.3 nM.
Turning to “AAGAGUAGAGGAUAUACGAAAAAAGAGUCGAAAGACUCGGGACAUGAGGAUCACCCAUGUAGAAGGCUACUCAA [Hyphema Seclusion Mod 62% 5] (Eterna round: R96, puzzle: Exclusion 2)”, the “apparent KD of MS2 coat protein” value under setting [4] stood at 19.4 nM.
Take “AAGAUACAUGAGGAUCACCCAUGUUAGGAUAUACGCAUGCAUGCAUGCAUGCAUGCAAGUAGAAGGAACCAUGC [Design #3] (Eterna round: R97, puzzle: Exclusion 1)”: the “apparent KD of MS2 coat protein” value by setting is: (input ligand: FMN 200 uM) 29.2 nM; (input ligand: none) 28.4 nM.
On to “AAGAUGCGGAUAGGAUAUGGAAAAAAAAAAAAAUUAGAAGGGUUGGUUAAAAUACAUGAGGAUCACCCAUGUGAAUCAUGAGAA [AK ExNG1-2.1] (Eterna round: R96, puzzle: Exclusion NG 1)”, for which the “apparent KD of MS2 coat protein” value turned out to be 159 nM (input ligand: FMN 200 uM), 127 nM under setting [4] and 159 nM (input ligand: none).

These data come from the supplement of paper PMC9170038.
